Measurements as given in the MegaScale stability set (Tsuboyama et al. 2023).

B1: EEHEE_rd4_0763 (parent)
chain: LTVHVGNVTYHFDNPEQAEEWAKRMAKKYQGQIHVKDGQFRIE
B2: EHEE_rd2_1257 (parent)
chain: EEERTFTNEEEARKAKKEAEKRGLRVTVTKDGTTWRVRIG

Variants of: B1
Assay: folding stability dG (cDNA display proteolysis); higher = more stable
Details: PBS, room temperature

Folding stability dG [kcal/mol], by site and new letter:
L1: I 1.7 | K 1.51 | G 1.77 | R 1.7 | Y 2.92 | C 2.7 | M 1.84 | P 1.73 | W 3.2 | S 2.03 | V 1.86 | D 0.974 | A 2.1 | H 2.13 | N 2.06 | Q 1.45 | F 2.66 | T 2.05 | E 0.877
V5: L 1.54 | F 1.74 | Q 0.495 | H 1.26 | K 0.531 | W 1.82 | I 1.69 | C 2.66 | G 0.415 | R 0.733 | Y 1.41 | E 0.355 | A 1.32 | T 0.582 | N 0.616 | P 0.391 | M 1.48 | S 0.647 | D 0.649
N7: E 1.37 | G 1.71 | R 1.76 | D 1.41 | M 1.57 | S 1.7 | T 1.67 | A 1.6 | L 1.55 | I 1.49 | H 1.69 | K 1.65 | C 2.65 | V 1.4 | F 1.62 | Q 1.56 | P 1.45
H4: Q 1.72 | T 1.85 | D 0.78 | R 1.82 | W 1.82 | L 1.88 | M 1.8 | E 1.24 | K 1.68 | S 1.72 | G 0.951 | A 1.55 | P 0.289 | V 1.97 | I 1.9 | Y 1.59 | N 1.27 | F 1.6
G6: V 0.969 | N 1.71 | F 1.84 | E 1.01 | I 1.18 | Y 1.5 | M 1.51 | H 1.69 | D 1.43 | C 2.58 | Q 1.18 | S 1.11 | T 0.772 | P 0.447 | W 1.5 | L 1.47 | A 1.41 | K 1.18 | R 1.31
V3: K 0.424 | C 1.34 | F 1.03 | G 0.606 | T 0.36 | P 0.241 | L 1.06 | E 0.235 | M 0.815 | Q 0.344 | I 1.09 | D 0.189 | R 0.352 | N 0.243 | S 0.339 | H 0.452 | W 0.755 | Y 0.756 | A 0.668
T2: V 1.61 | A 1.51 | R 1.48 | D 1.22 | P 0.538 | M 1.53 | Y 1.59 | K 1.41 | S 1.55 | G 0.823 | N 1.14 | Q 1.53 | I 1.59 | H 1.53 | W 1.5 | L 1.64 | E 1.48 | F 1.58

Variants of: B2
Assay: as above
Details: PBS, room temperature

Folding stability dG [kcal/mol]: each site, then its substitutions
R13: D 1.98 | E 2.22 | K 2.05 | A 1.93
K14: D 1.86 | M 2.15 | R 2.17 | N 2.11 | E 2.19 | L 2.1 | S 1.89 | V 1.83
T34: D 1.53 | V 2.62 | A 1.68 | H 2.12
V37: L 2.17 | F 0.864 | D 0.331
K21: T 1.88 | I 1.93 | D 2.25 | W 1.71 | A 2.53 | S 2.38
F6: W 0.194 | T -0.137 | V 0.21
G40: L 2.71 | T 2.51
R4: K 1.97 | T 1.61
T27: K 1.43 | F 1.83 | A 1.19 | V 1.88 | I 1.95
T7: I 1.56 | C 1.95 | W 1.77
E2: W 2.86 | H 2.12 | M 2.16 | I 2.5 | D 1.75
E3: Q 1.44 | G 1.28 | I 2.48 | F 2 | T 1.99 | S 1.66
T5: H 1.68 | L 2.11 | N 1.29 | F 2.19 | D 1.13 | A 1.49 | V 2.47 | E 1.65
W35: F 1.32 | E -0.181 | H 0.478 | L 0.579 | I 1.3 | P 0.178 | K -0.11
R38: D 1 | L 2.27 | M 2.04 | W 2.11 | H 1.94 | N 1.71 | I 2.59 | V 2.45
E11: A 1.8 | P -0.587 | T 0.995 | R 0.608 | S 1.46
V28: L 2.58 | I 2.71 | F 1.45
E18: F 1.56 | Y 1.59 | T 1.33 | W 2.24 | K 1.11
K30: Q 2.13 | L 1.99 | D 1.24 | W 3.02 | M 1.75 | F 3.53
D31: V 2.27 | R 1.32 | Y 1.75 | M 1.74 | C 2.04 | S 1.72 | A 1.41 | Q 1.7 | L 1.74 | E 2.15
K17: I 2.5 | T 2.11 | N 2.15 | W 2.39 | V 2.27 | Y 2.44 | A 2.47
E20: G 0.5 | T 1.11 | V 1.39 | F 1.02 | H 0.935 | K 1.14 | N 0.952 | I 1.63
R22: Q 1.88 | K 1.8
E1: M 2.38 | R 1.83
A12: F 1.54 | S 0.218
T33: F 2.18 | H 2.11 | L 2.12 | D 3.11 | C 2.5
G32: I -0.071 | H 0.713 | F 0.011 | M 0.351 | K 0.693
N8: H 1.34 | G 0.865 | F 1.09 | E 1.35 | D 1.76 | T 2.35 | V 1.43
V26: L 0.171 | G 0.489
E10: P 1.38 | N 1.86 | F 2.01 | I 1.98 | T 1.81 | C 2.31 | W 2.57 | A 2.16 | Q 2.03
T29: K 1.34 | Q 1.63 | S 1.62 | R 1.51 | G 0.178
E9: G 1.42 | M 1.55 | L 2.01 | V 1.72 | W 2.9 | I 1.96 | A 1.76 | N 0.702
L24: Y 2.08 | H 1.46 | T 0.162 | N 0.631 | W 1.61 | D 0.447
R36: N 1.12 | L 2.15 | M 1.65 | W 1.7 | Q 1.23
K16: C 2.25 | Q 2.91 | Y 2.2
I39: V 1.64 | M 1.37 | E 0.258 | H 0.156 | K -0.799 | S 0.837
R25: S 1.88 | Q 1.89 | P 1.47 | T 1.9 | N 1.62
G23: A 0.188 | F 0.9 | V 0.034 | C 1.58 | N 0.986
A19: D -0.295 | K 0.052 | Q 0.398 | C 2.03 | L 2.46
A15: Q 0.698 | T 1.19 | R 0.547 | E 1.11 | I 1.43
